Test in all cases: ITC; iTC200, 25°C, 20 mM sodium phosphate, pH 7.4, 150 mM NaCl; both partners dialysed against the same buffer
The target of experiment [1] is Hsa NCOA1 CID (SRC1) (human).
Experiment [2] has as its target Hsa NCOA2 CID (TIF2) (human).
The target of experiment [3] is Hsa NCOA3 CID (ACTR) (human) (UniProt Q9Y6Q9).
Experiment [4] has as its target Hsa ETS-2 PNT (human) (UniProt P15036).
Experiment [5] addresses Hsa p53TAD (human) (UniProt P04637).
Experiment [6] has as its target Fish/Tetrapod NCOA3 CID.
For experiment [7], the target named is Hsa NCOA1 CID (SRC1) (human). This is another data set of the same source.
Target sequence in this assay (Q15788 1040-1081): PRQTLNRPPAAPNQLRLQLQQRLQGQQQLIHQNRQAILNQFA
In experiment [8] the target is Hsa NCOA2 CID (TIF2) (human). The source holds these as a separate data set.
Experiment [9] addresses 1R CID.
The target in experiment [10] is T1, Hsa ETS-2 PNT (human), P15036.
T1 chain: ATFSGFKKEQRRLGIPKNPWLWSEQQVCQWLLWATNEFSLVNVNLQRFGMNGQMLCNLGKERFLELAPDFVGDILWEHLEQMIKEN

In experiment [11] the target is 1R CID G1080S.
The target in experiment [12] is 1R CID S1058N.
Experiment [13] deals with 1R CID S1078Q.
The target of experiment [14] is T2, Hsa ETS-2 PNT (human, UniProt P15036 85-170).
T2 construct: pointed (PNT) domain of human ETS-2; also called globular pointed (PNT) domain from human ETS-2; PNT domain of ETS-2; source: expressed and purified as previously described (Dogan et al., 2015)
T2 sequence (looked up): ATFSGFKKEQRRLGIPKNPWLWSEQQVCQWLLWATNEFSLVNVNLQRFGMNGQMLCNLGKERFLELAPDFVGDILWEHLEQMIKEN
The conditions noted are these: both partners purified.

Experiment [15] deals with T3, Hsa p53TAD (human, UniProt P04637 1-61).
T3 construct: source: expressed and purified as previously described (Dogan et al., 2015)
T3 sequence (P04637 1-61): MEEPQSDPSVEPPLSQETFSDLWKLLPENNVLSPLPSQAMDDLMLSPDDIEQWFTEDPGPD
The conditions noted are these: both partners purified.

The target in experiment [16] is T4, Hsa NCOA3 CID (ACTR) (human, UniProt Q9Y6Q9-3 1040-1081).
T4 construct: numbers count on: splice variant NCOA3-002 (ENST00000371997); pRSET vector; also called human NCOA3 CID; ACTR CID
T4 chain (looked up): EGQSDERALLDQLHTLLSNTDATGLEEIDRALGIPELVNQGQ
The following applies: both partners purified.

Read-outs that look alike come from different tables or passages of the source.

Chain of Hsa p53TAD (human) (P04637 1-61): as the sequence (P04637 1-61) above

What is called Kd is the constant that tells how readily two partners part at equilibrium. Read a high Kd as lower affinity. Regarding Dmel NCBD (domain or fragment), the Kd in experiment [1] is 5200 nM; in experiment [2], 22000 nM; in experiment [3], 37000 nM.
The molecule “Hsa CREBBP NCBD A2106Q (from UniProt Q92793 2062-2109) (domain or fragment)” yielded a Kd in [2] of 100 nM.
With Pma NCBD (domain or fragment), the Kd in experiment [1] was 190 nM; in experiment [2] it was 44 nM; in [3], 230 nM; in experiment [4], 1000 nM.
In turn, “Hsa CREBBP NCBD A2106Q/Y2108Q (from UniProt Q92793 2062-2109) (domain or fragment)” displayed a Kd in experiment [2] of 220 nM.
As to Hsa p300 NCBD (domain or fragment), the dissociation constant Kd was 180 nM in experiment [1]; 71 nM in experiment [2]; 110 nM in experiment [3]; 1500 nM in experiment [4]; 9200 nM in [5].
Consider “Hsa CREBBP NCBD Y2108Q (from UniProt Q92793 2062-2109) (domain or fragment)”, for which the Kd in experiment [2] is 210 nM.
“Hsa CREBBP NCBD (from UniProt Q92793 2062-2109) (domain or fragment)”: the Kd in experiment [1] came to 330 nM; in experiment [2], 130 nM.
Consider ITPGALQDLLRTLKSPSSPQQQQQVLNILKSNPHLMAAFIKQRTAKYQ (domain or fragment, modifications not checked) [Dre CREBBP NCBD], for which the Kd worked out at 570 nM in experiment [6], 290 nM in experiment [7] and 230 nM in experiment [8].
In the case of IPPSALQDLLRTLRSPSSPQQQQQVLNILKSNPQLMAAFIKQRAAKYQ (domain or fragment, modifications not checked) [1R/2R NCBD N2065S], the Kd in experiment [9] was determined as 130 nM.
In the case of IPPNALQDLLRTLKSPSSPQQQQQVLNILKSNPQLMAAFIKQRTAKYQ (domain or fragment, modifications not checked) [Fish/Tetrapod CREBBP NCBD], the Kd in experiment [6] came out at 410 nM; in experiment [10] it was 1300 nM.
With IPPSALQDLLRTLRSPSSPQQQQQVLNILKSNPQLMAAFIKQRAARYQ (domain or fragment, modifications not checked) [1R/2R NCBD N2065S K2107R], the Kd in experiment [9] was 170 nM; in [11], 130 nM.
IPPNALQDLLRTLRSPSSPQQQQQVLNILKSNPQLMAAFIKQRAAKYQ (domain or fragment, modifications not checked) [1R/2R NCBD]: the Kd in [7] was found to be 110 nM; in [10], 850 nM; in experiment [9] it was 200 nM; in experiment [8] it was 45 nM; in experiment [11] it was 240 nM; in experiment [12] it was 220 nM. The Kd in [13] came out at 250 nM.

B1: Hsa CREBBP NCBD (domain or fragment, human)
chain: GSISPSALQDLLRTLKSPSSPQQQQQVLNILKSNPQLMAAFIKQRTAKYV
notes: Gly-Ser left at the N-terminus from the expression construct; NCBD domain of human CREBBP; pRSET vector; also called human CREBBP NCBD
B1: the Kd in experiment [14] came to 760 nM; in [15], 84000 nM; in experiment [16], 350 nM; in experiment [9], 380 nM.
